The assay concerns the target T1, MERS-CoV receptor binding domain (RBD), biotinylated (MERS-CoV, UniProt K9N5Q8).
T1 construct: also called MERS-CoV RBD; MERS-CoV spike RBD
T1 sequence: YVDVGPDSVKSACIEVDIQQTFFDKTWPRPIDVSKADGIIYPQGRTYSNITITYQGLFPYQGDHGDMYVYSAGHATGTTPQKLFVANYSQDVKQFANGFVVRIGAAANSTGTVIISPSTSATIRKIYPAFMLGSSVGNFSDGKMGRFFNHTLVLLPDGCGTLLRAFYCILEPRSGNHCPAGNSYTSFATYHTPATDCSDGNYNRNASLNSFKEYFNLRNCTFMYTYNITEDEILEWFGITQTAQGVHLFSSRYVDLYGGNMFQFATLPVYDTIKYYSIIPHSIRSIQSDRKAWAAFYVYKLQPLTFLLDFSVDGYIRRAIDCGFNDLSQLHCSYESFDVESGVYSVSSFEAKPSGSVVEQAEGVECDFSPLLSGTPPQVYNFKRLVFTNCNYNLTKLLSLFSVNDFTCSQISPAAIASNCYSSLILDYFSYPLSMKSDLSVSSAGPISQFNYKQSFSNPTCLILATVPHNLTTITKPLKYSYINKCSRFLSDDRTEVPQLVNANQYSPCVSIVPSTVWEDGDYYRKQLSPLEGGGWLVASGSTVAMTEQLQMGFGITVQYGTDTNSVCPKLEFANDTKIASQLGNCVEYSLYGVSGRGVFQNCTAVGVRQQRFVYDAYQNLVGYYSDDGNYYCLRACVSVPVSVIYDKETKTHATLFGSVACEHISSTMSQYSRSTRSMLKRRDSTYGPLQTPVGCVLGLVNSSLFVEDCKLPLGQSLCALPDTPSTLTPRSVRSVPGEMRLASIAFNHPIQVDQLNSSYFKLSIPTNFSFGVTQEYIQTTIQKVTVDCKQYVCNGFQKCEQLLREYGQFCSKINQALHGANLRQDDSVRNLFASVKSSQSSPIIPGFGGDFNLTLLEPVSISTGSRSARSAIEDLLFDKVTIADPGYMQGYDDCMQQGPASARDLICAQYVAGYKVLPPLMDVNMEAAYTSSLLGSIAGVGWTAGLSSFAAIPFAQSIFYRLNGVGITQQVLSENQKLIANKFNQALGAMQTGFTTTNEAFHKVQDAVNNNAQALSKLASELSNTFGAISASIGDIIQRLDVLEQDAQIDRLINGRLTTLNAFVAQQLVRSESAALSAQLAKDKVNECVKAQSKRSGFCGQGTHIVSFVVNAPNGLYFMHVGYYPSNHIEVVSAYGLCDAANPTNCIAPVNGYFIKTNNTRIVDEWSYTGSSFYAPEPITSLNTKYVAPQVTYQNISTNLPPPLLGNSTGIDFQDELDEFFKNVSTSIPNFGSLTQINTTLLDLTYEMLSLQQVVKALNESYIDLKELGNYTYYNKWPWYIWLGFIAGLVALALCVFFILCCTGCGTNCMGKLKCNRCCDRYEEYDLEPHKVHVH
The experiment in a line: BLI; […] (10 µg/mL) […] (SA) biosensor for 300 s; analyte in kinetic buffer (PBST, 0.1% BSA) […], association 120 s, dissociation 180 s; […]. The conditions noted are these: both partners purified.

B1: human DPP4 (receptor)
chain: SRKTYTLTDYLKNTYRLKLYSLRWISDHEYLYKQENNILVFNAEYGNSSVFLENSTFDEFGHSINDYSISPDGQFILLEYNYVKQWRHSYTASYDIYDLNKRQLITEERIPNNTQWVTWSPVGHKLAYVWNNDIYVKIEPNLPSYRITWTGKEDIIYNGITDWVYEEEVFSAYSALWWSPNGTFLAYAQFNDTEVPLIEYSFYSDESLQYPKTVRVPYPKAGAVNPTVKFFVVNTDSLSSVTNATSIQITAPASMLIGDHYLCDVTWATQERISLQWLRRIQNYSVMDICDYDESSGRWNCLVARQHIEMSTTGWVGRFRPSEPHFTLDGNSFYKIISNEEGYRHICYFQIDKKDCTFITKGTWEVIGIEALTSDYLYYISNEYKGMPGGRNLYKIQLSDYTKVTCLSCELNPERCQYYSVSFSKEAKYYQLRCSGPGLPLYTLHSSVNDKGLRVLEDNSALDKMLQNVQMPSKKLDFIILNETKFWYQMILPPHFDKSKKYPLLLDVYAGPCSQKADTVFRLNWATYLASTENIIVASFDGRGSGYQGDKIMHAINRRLGTFEVEDQIEAARQFSKMGFVDNKRIAIWGWSYGGYVTSMVLGSGSGVFKCGIAVAPVSRWEYYDSVYTERYMGLPTPEDNLDHYRNSTVMSRAENFKQVEYLLIHGTADDNVHFQQSAQISKALVDVGVDFQAMWYTDEDHGIASSTAHQHIYTHMSHFIKQCFSLP
Turning to B1, binding was characterised by a dissociation constant (Kd) of 55.1 nM.

The values above are taken from publication PMC12173559, “The Functional DPP4 Receptor Is an Indispensable Factor Mediating the Immune Performance of Mucosal Vaccines for Middle East Respiratory Syndrome” (Transboundary and Emerging Diseases, 2025).
